Measured values taken from the supplement of paper PMC9112550, “Optimization of the antimicrobial peptide Bac7 by deep mutational scanning” (BMC Biology, 2022).

What follows are sequences tested on Escherichia coli TOP10 (assay: shrunken log2 fold change of peptide-encoding DNA abundance (4.5 h post-induction vs induction); higher = less antimicrobial activity (less host growth inhibition)). Conditions: time post-induction: 4.5 h; library: site-saturation at positions 5, 18, 19, 20.
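Further: peptides expressed intracellularly from a pBAD plasmid library in pooled LB shake-flask culture, induced with 0.3% L-arabinose, DNA abundance read by NGS, three biological replicates, DESeq2 with apeglm shrinkage.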

Sequence	shrunken log2 fold change
RRIRFRPPRLPRPRPRPRWYPRP	-0.351
RRIRMRPPRLPRPRPRPPAQPRP	1.08
RRIRKRPPRLPRPRPRPQVLPRP	-0.165
RRIRPRPPRLPRPRPRPWVCPRP	0.23
RRIRERPPRLPRPRPRPDFKPRP	0.0659
RRIRPRPPRLPRPRPRPKVHPRP	-0.132
RRIRHRPPRLPRPRPRPPMRPRP	0.747
RRIRIRPPRLPRPRPRPDKPPRP	-0.0335
RRIRQRPPRLPRPRPRPDNKPRP	-0.532
RRIRQRPPRLPRPRPRPHIVPRP	-0.225
RRIRKRPPRLPRPRPRPYQDPRP	0.0178
RRIRERPPRLPRPRPRPLKPPRP	-0.16
RRIRERPPRLPRPRPRPTDVPRP	-0.0755
RRIRMRPPRLPRPRPRPQCMPRP	-0.0822
RRIRNRPPRLPRPRPRPTTVPRP	-0.12
RRIRFRPPRLPRPRPRPVTMPRP	-0.295
RRIRARPPRLPRPRPRPTVHPRP	2.45
RRIRGRPPRLPRPRPRPWMLPRP	0.0888
RRIRHRPPRLPRPRPRPSTVPRP	0.00256
RRIRDRPPRLPRPRPRPVHVPRP	0.0158
RRIRLRPPRLPRPRPRPQCKPRP	-0.425
RRIRFRPPRLPRPRPRPATRPRP	0.193
RRIRMRPPRLPRPRPRPRKGPRP	0.81
RRIRERPPRLPRPRPRPVVWPRP	0.33
RRIRARPPRLPRPRPRPFHCPRP	0.252

Sequence	shrunken log2 fold change
RRIRKRPPRLPRPRPRPYEKPRP	-0.0121
RRIRCRPPRLPRPRPRPAAIPRP	0.0247
RRIRTRPPRLPRPRPRPYANPRP	-0.00264
RRIRIRPPRLPRPRPRPNIIPRP	-0.719
RRIRWRPPRLPRPRPRPMSLPRP	-0.0247
RRIRMRPPRLPRPRPRPLWDPRP	0.437
RRIRPRPPRLPRPRPRPEEVPRP	0.0532
RRIRHRPPRLPRPRPRPMMGPRP	-0.01
RRIRYRPPRLPRPRPRPPLKPRP	-0.192
RRIRKRPPRLPRPRPRPMYEPRP	-0.132
RRIRGRPPRLPRPRPRPFTAPRP	0.272
RRIRTRPPRLPRPRPRPHPGPRP	0.106
RRIRCRPPRLPRPRPRPLIQPRP	-0.457
RRIRVRPPRLPRPRPRPSMKPRP	-0.363
RRIRLRPPRLPRPRPRPDHYPRP	0.101
RRIRKRPPRLPRPRPRPQIGPRP	-0.0295
RRIRVRPPRLPRPRPRPYINPRP	-0.724
RRIRMRPPRLPRPRPRPDPMPRP	0.501
RRIRYRPPRLPRPRPRPQFDPRP	-0.0286
RRIRGRPPRLPRPRPRPQEHPRP	0.146
RRIRNRPPRLPRPRPRPWWIPRP	-0.00145
RRIRGRPPRLPRPRPRPPVHPRP	0.644
RRIRVRPPRLPRPRPRPNVDPRP	-0.0826
RRIRCRPPRLPRPRPRPKAHPRP	0.205
RRIRSRPPRLPRPRPRPDPTPRP	0.035

Sequence	shrunken log2 fold change
RRIRKRPPRLPRPRPRPEQLPRP	-0.0173
RRIRLRPPRLPRPRPRPSGYPRP	-0.152
RRIRERPPRLPRPRPRPNWHPRP	-0.185
RRIRCRPPRLPRPRPRPWNVPRP	-0.476
RRIRARPPRLPRPRPRPTEKPRP	0.413
RRIRTRPPRLPRPRPRPNRSPRP	-0.069
RRIRYRPPRLPRPRPRPYLAPRP	-0.682
RRIRYRPPRLPRPRPRPKFTPRP	-0.328
RRIRFRPPRLPRPRPRPADGPRP	0.183
RRIRIRPPRLPRPRPRPRSQPRP	0.085
RRIRGRPPRLPRPRPRPTFHPRP	0.366
RRIRLRPPRLPRPRPRPTVMPRP	0.105
RRIRRRPPRLPRPRPRPVRFPRP	0.632
RRIRFRPPRLPRPRPRPWHLPRP	-0.0307
RRIRPRPPRLPRPRPRPAIHPRP	-0.196
RRIRPRPPRLPRPRPRPVPQPRP	0.446
RRIRRRPPRLPRPRPRPFFGPRP	0.159
RRIRGRPPRLPRPRPRPGHIPRP	0.299
RRIRPRPPRLPRPRPRPVFHPRP	-0.178
RRIRVRPPRLPRPRPRPDFNPRP	-0.344
RRIRPRPPRLPRPRPRPYPQPRP	-0.252
RRIRARPPRLPRPRPRPDVNPRP	0.0462
RRIRHRPPRLPRPRPRPWGPPRP	-0.0071
RRIRVRPPRLPRPRPRPIRRPRP	0.0517
RRIRHRPPRLPRPRPRPPGTPRP	0.0679

Sequence	shrunken log2 fold change
RRIRRRPPRLPRPRPRPPNWPRP	0.581
RRIRERPPRLPRPRPRPINSPRP	-0.157
RRIRPRPPRLPRPRPRPLDLPRP	-0.102
RRIRCRPPRLPRPRPRPSWLPRP	-0.547
RRIRMRPPRLPRPRPRPVPKPRP	1.11
RRIRNRPPRLPRPRPRPENTPRP	-0.803
RRIRWRPPRLPRPRPRPHCHPRP	-0.254
RRIRTRPPRLPRPRPRPVWTPRP	0.03
RRIRARPPRLPRPRPRPDPIPRP	-0.521
RRIRFRPPRLPRPRPRPYALPRP	-0.0591
RRIRKRPPRLPRPRPRPPLMPRP	0.396
RRIRFRPPRLPRPRPRPWKRPRP	-0.0222
RRIRERPPRLPRPRPRPWFGPRP	0.0197
RRIRYRPPRLPRPRPRPHSYPRP	-0.188
RRIRWRPPRLPRPRPRPIPRPRP	0.0469
RRIRVRPPRLPRPRPRPPDLPRP	0.195
RRIRARPPRLPRPRPRPGSCPRP	0.32
RRIRERPPRLPRPRPRPLMEPRP	0.0296
RRIRPRPPRLPRPRPRPEIYPRP	0.0694
RRIRCRPPRLPRPRPRPMADPRP	-0.0181
RRIRARPPRLPRPRPRPEQGPRP	0.388
RRIRSRPPRLPRPRPRPRYNPRP	-0.479
RRIRMRPPRLPRPRPRPYGSPRP	-0.0489
RRIRHRPPRLPRPRPRPREWPRP	0.0987
RRIRLRPPRLPRPRPRPMKVPRP	-0.00674

Sequence	shrunken log2 fold change
RRIRMRPPRLPRPRPRPGMHPRP	0.186
RRIRVRPPRLPRPRPRPLKFPRP	0.044
RRIRDRPPRLPRPRPRPKGCPRP	0.0262
RRIRPRPPRLPRPRPRPSSRPRP	-0.863
RRIRHRPPRLPRPRPRPYPNPRP	-0.014
RRIRLRPPRLPRPRPRPPSTPRP	0.00129
RRIRDRPPRLPRPRPRPTNDPRP	0.0152
RRIRFRPPRLPRPRPRPATYPRP	-0.191
RRIRARPPRLPRPRPRPMYKPRP	-0.189
RRIRTRPPRLPRPRPRPKSKPRP	0.0217
RRIRLRPPRLPRPRPRPCAKPRP	0.132
RRIRTRPPRLPRPRPRPWCMPRP	-0.0742
RRIRNRPPRLPRPRPRPERHPRP	0.204
RRIRYRPPRLPRPRPRPPKTPRP	-0.38
RRIRKRPPRLPRPRPRPAEDPRP	1.33
RRIRIRPPRLPRPRPRPLLIPRP	-0.485
RRIRGRPPRLPRPRPRPPIRPRP	0.849
RRIRWRPPRLPRPRPRPQASPRP	-0.11
RRIRWRPPRLPRPRPRPMWFPRP	-0.487
RRIRKRPPRLPRPRPRPINAPRP	0.088
RRIRPRPPRLPRPRPRPQRRPRP	-0.359
RRIRWRPPRLPRPRPRPKVNPRP	0.175
RRIRSRPPRLPRPRPRPKPMPRP	0.2
RRIRLRPPRLPRPRPRPRIPPRP	0.09
RRIRQRPPRLPRPRPRPIVFPRP	0.161

Sequence	shrunken log2 fold change
RRIRHRPPRLPRPRPRPCCPPRP	-0.243
RRIRQRPPRLPRPRPRPASQPRP	0.0572
RRIRTRPPRLPRPRPRPRSLPRP	0.19
RRIRQRPPRLPRPRPRPDKGPRP	-0.285
RRIRHRPPRLPRPRPRPMPDPRP	-0.276
RRIRERPPRLPRPRPRPYWVPRP	-0.338
RRIRPRPPRLPRPRPRPHCKPRP	-0.633
RRIRRRPPRLPRPRPRPHVHPRP	0.0274
RRIRIRPPRLPRPRPRPQNRPRP	-0.386
RRIRCRPPRLPRPRPRPCQVPRP	-0.342
RRIRDRPPRLPRPRPRPEAEPRP	1.67
RRIRARPPRLPRPRPRPLAHPRP	0.296
RRIRRRPPRLPRPRPRPFERPRP	0.0145
RRIRRRPPRLPRPRPRPWPAPRP	0.448
RRIRCRPPRLPRPRPRPYAWPRP	-0.553
RRIRSRPPRLPRPRPRPYIQPRP	-1.18
RRIRGRPPRLPRPRPRPFTSPRP	-0.0475
RRIRRRPPRLPRPRPRPEQLPRP	0.203
RRIRSRPPRLPRPRPRPKHYPRP	-0.233
RRIRLRPPRLPRPRPRPCRDPRP	-0.211
RRIRTRPPRLPRPRPRPYGTPRP	-0.347
RRIRTRPPRLPRPRPRPCPAPRP	0.115
RRIRMRPPRLPRPRPRPWPEPRP	0.735
RRIRFRPPRLPRPRPRPDQYPRP	-0.169
RRIRCRPPRLPRPRPRPITDPRP	-0.442
